Assay results from article PMC3097154, “Antiviral activity of α-helical stapled peptides designed from the HIV-1 capsid dimerization domain” (Retrovirology, 2011).
pKd, pKi: −log10 of the molar value. Where two headings read alike, the source gives them in different places.

Experiments:
[1] = molecular target: C-terminal domain (CTD) of HIV-1 capsid (CA), wild type (HIV-1 (strain NL4-3)); assay: NMR titration
[2] = molecular target: C-terminal domain (CTD) of HIV-1 capsid (CA), wild type (HIV-1 (strain NL4-3)); assay: ITC; Ki worked out from the rise of the apparent dimer dissociation constant of CTD with the NYAD-203 concentration, extrapolated to low (zero) peptide concentration; pH 7.3, 30 C
[3] = molecular target: C-terminal domain (CTD) of HIV-1 capsid (CA), wild type (HIV-1 (strain NL4-3)); assay: as above; remark: listed apart in the source
[4] = molecular target: HIV-1 capsid CTD CTD (Human immunodeficiency virus 1) (UniProt O93182); settings: cited from earlier work
Sequence of HIV-1 capsid CTD CTD (Human immunodeficiency virus 1) (O93182 278-363): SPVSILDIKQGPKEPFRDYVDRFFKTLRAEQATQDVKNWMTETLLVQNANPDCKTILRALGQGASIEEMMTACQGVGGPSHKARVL

[5] = molecular target: C-terminal domain (CTD) of HIV-1 capsid (CA), wild type (HIV-1 (strain NL4-3)); assay: ITC; dilution of CTD (ca. 250 uM) into buffer with 50 uM NYAD-203; 25 mM sodium phosphate pH 7.3, 30 C; apparent; dimer to monomers
[6] = molecular target: C-terminal domain (CTD) of HIV-1 capsid (CA), wild type (HIV-1 (strain NL4-3)); assay: ITC; dilution of CTD (ca. 250 uM) into buffer with 200 uM NYAD-203; 25 mM sodium phosphate pH 7.3, 30 C; apparent; dimer to monomers
[7] = molecular target: C-terminal domain (CTD) of HIV-1 capsid (CA), wild type (HIV-1 (strain NL4-3)); assay: ITC; dilution of CTD (ca. 250 uM) into buffer with 350 uM NYAD-203; 25 mM sodium phosphate pH 7.3, 30 C; apparent; dimer to monomers
[8] = molecular target: C-terminal domain (CTD) of HIV-1 capsid (CA), wild type (HIV-1 (strain NL4-3)); assay: ITC; dilution of CTD (ca. 250 uM in the syringe, 10 ul injections) into buffer without peptide; 25 mM sodium phosphate pH 7.3, 30 C; dimer to monomers
[9] = molecular target: HIV-1 capsid CA (Human immunodeficiency virus 1) (UniProt O93182); settings: cited from earlier work

Sequence of CAC1 peptide (O93182 307-326): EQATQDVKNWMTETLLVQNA
Sequence of HIV-1 capsid CA (O93182 133-363): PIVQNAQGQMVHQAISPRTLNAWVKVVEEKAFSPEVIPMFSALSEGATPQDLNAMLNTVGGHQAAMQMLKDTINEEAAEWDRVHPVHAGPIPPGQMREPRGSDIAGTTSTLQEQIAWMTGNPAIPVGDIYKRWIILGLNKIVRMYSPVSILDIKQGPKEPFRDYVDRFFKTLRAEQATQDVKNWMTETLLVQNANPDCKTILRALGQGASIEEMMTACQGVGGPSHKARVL

With “NYAD-203, hydrocarbon-stapled dimer interface peptide, soluble analog of NYAD-201” as the substance, how does the pKd [1] read?
Its pKd is greater than 5.00.

And the pKi [2]?
Its pKi is 4.40.

And the pKi [3]?
Its pKi is 4.35.

With CAC1 peptide (from UniProt O93182) as the substance, how does the pKd [4] read?
Its pKd is 4.30.

For “C-terminal domain (CTD) of HIV-1 capsid (CA), wild type (domain or fragment)”, which apparent K diss with 50 uM NYAD-203 [5] is on record?
Its apparent K diss with 50 uM NYAD-203 is 31.2 µM.

What about the apparent dH of dimer dissociation with 50 uM NYAD-203 [5] of the same substance?
The apparent dH of dimer dissociation with 50 uM NYAD-203 was 9.1 kcal/mol.

And the apparent K diss with 200 uM NYAD-203 [6]?
Its apparent K diss with 200 uM NYAD-203 is 33.2 µM.

What about the apparent dH of dimer dissociation with 200 uM NYAD-203 [6] of the same substance?
Its apparent dH of dimer dissociation with 200 uM NYAD-203 is 10.8 kcal/mol.

What about the apparent K diss with 350 uM NYAD-203 [7] of the same substance?
The apparent K diss with 350 uM NYAD-203 was 40.5 µM.

What about the apparent dH of dimer dissociation with 350 uM NYAD-203 [7] of the same substance?
The apparent dH of dimer dissociation with 350 uM NYAD-203 was 10.9 kcal/mol.

What about the pKd [8] of the same substance?
The pKd was 4.82.

What about the dH of dimer dissociation [8] of the same substance?
The dH of dimer dissociation was 10.7 kcal/mol.

With HIV-1 capsid CA (from UniProt O93182) as the substance, how does the pKd [9] read?
The pKd was 4.74.
